Measurements from US20190218553, “VON WILLEBRAND FACTOR (VWF)-TARGETING AGENTS AND METHODS OF USING THE SAME” (DUKE UNIVERSITY, published 2019).

Legend:
[1] = target: T1, von Willebrand factor (VWF) (Homo sapiens, UniProt P04275 P04275:764-2813); assay: filter; Bmax 43%; 2 mM CaCl2, 37 C; conditions: tags: factor VIII free, Haematologic Technologies Inc; label: 5'-32P
Protocol: (§1) Affinity constants (Kd values) were determined using double-filter nitrocellulose filter binding assays (Rusconi et al, Thromb. Haemost. $4:841-848 (2000)). All binding studies were performed in binding buffer F (20 mM HEPES, pH 7.4, 150 mM NaCl, 2 mM CaCl₂, and 0.01% BSA) at 37° C. Human purified VWF (factor VIII free) was purchased from Haematologic Technologies Inc. (Essex Junction, Vt.) and used in the double-filter nitrocellulose filter binding assay to determine the Kd of the aptamers. Briefly, RNA were end-labeled at the 5′ end with T4 polynucleotide kinase (New England Biolabs, Beverly, Mass.) and [γ³²P] ATP (Amersham Pharmacia Biotech, Piscataway, N.J.) (Fitzwater and Polisky, Methods Enzymol. 267:275-301 (1996)). End-labeled RNA was diluted in binding buffer F, heat denatured at 65° C. for 5 minutes, and subsequently equilibrated at 37° C. Direct binding was performed by incubating trace ³²P-RNA with varying concentrations of VWF protein in binding buffer F at 37° C. for 5 min. The fraction of the nucleic acid-protein complex which bound to the nitrocellulose membrane was quantified with a phosphorimager (Molecular Dynamics, Sunnyvale, Calif.). Non-specific binding of the radiolabeled nucleic acid was subtracted out of the binding such that only specific binding remained (Wong and Lohman, Proc. Natl. Acad. Sci. USA 90:5428-5432 (1993)).

[2] = target: T1, von Willebrand factor (VWF); assay: filter; Bmax 70%; 2 mM CaCl2, 37 C; conditions: tags: factor VIII free, Haematologic Technologies Inc; label: 5'-32P
Protocol: as §1

[3] = target: T1, von Willebrand factor (VWF); assay: filter; Bmax 50%; 2 mM CaCl2, 37 C; conditions: tags: factor VIII free, Haematologic Technologies Inc; label: 5'-32P
Protocol: as §1

[4] = target: T1, von Willebrand factor (VWF); assay: filter; Bmax 44%; 2 mM CaCl2, 37 C; conditions: tags: factor VIII free, Haematologic Technologies Inc; label: 5'-32P
Protocol: as §1

[5] = target: T1, von Willebrand factor (VWF); assay: filter; Bmax 65%; 2 mM CaCl2, 37 C; conditions: tags: factor VIII free, Haematologic Technologies Inc; label: 5'-32P
Protocol: as §1

[6] = target: T1, von Willebrand factor (VWF); assay: filter; Bmax 89%; 2 mM CaCl2, 37 C; conditions: tags: factor VIII free human purified VWF, Haematologic Technologies Inc; label: 5'-32P
Protocol: as §1

[7] = target: T1, von Willebrand factor (VWF); assay: filter; Bmax 68%; 2 mM CaCl2, 37 C; conditions: tags: factor VIII free, Haematologic Technologies Inc; label: 5'-32P
Protocol: as §1

[8] = target: T1, von Willebrand factor (VWF); assay: filter; Bmax 90%; 2 mM CaCl2, 37 C; conditions: tags: factor VIII free human purified VWF, Haematologic Technologies Inc; label: 5'-32P
Protocol: as §1

[9] = target: T1, von Willebrand factor (VWF); assay: filter; Bmax 63%; 2 mM CaCl2, 37 C; conditions: tags: factor VIII free, Haematologic Technologies Inc; label: 5'-32P
Protocol: as §1

[10] = target: T1, von Willebrand factor (VWF); assay: filter; Bmax 74%; 2 mM CaCl2, 37 C; conditions: tags: factor VIII free human purified VWF, Haematologic Technologies Inc; label: 5'-32P
Protocol: as §1

[11] = target: T1, von Willebrand factor (VWF); assay: filter; Bmax 51%; 2 mM CaCl2, 37 C; conditions: tags: factor VIII free, Haematologic Technologies Inc; label: 5'-32P
Protocol: as §1

[12] = target: T1, von Willebrand factor (VWF); assay: filter; Bmax 21%; 2 mM CaCl2, 37 C; conditions: tags: factor VIII free, Haematologic Technologies Inc; label: 5'-32P
Protocol: as §1

B1: T22 (ssRNA)
RNA: GGACGAACUGCCCUCAGCUACUUUCAUGUUGCUGACGCACAGACGACUCGCUG
modifications: 2'-F C and U; 2'-OH A and G
Question: With B1 as the binder, how does the Kd [1] read?
Answer: Its Kd is 28 nM.

Question: With ACGAACUGCCCUCGAUCGACGCACAGACGU (ssRNA, mAmCmGmAmAmCfUmGfCfCfCmUmCmGmAmUmCmGmAfCrGfCmAmCmAmGmAmCmGfU-idT) [T59 vrt17] as the binder, how does the Kd [2] read?
Answer: The Kd was 13 nM.

Question: ACGAACUGCCCUCAGACUUUCAUGUCUGACGCACAGACGU (ssRNA, 2'-F C and U; 2'-OH A and G; 3' idT) [T39] was tested. Which Kd [3] did it give?
Answer: The Kd was 11 nM.

Question: Which Kd [4] does the source give for ACGAACUGCCCUCGAUCGACGCACAGACGU (ssRNA, mAmCmGmAmAmCmUmGfCfCfCmUmCmGmAmUmCmGmAfCfGfCmAmCmAmGmAmCmGfUidT) [DTRI-007] here?
Answer: Its Kd is 16 nM.

Question: For ACGAACUGCCCUCGAUCGACGCACAGACGU (ssRNA, mAmCmGmAmAmCfUmGfCfCfCmUmCmGmAmUmCmGmAfCmGfCrAmCmAmGmAmCmGfU-idT) [T59 vrt15], which Kd [5] is on record?
Answer: The Kd was 32.5 nM.

Question: How did the Kd [6] turn out when ACGAACUGCCCUCGAUCGACGCACAGACGU (ssRNA, 2'-F C9,C10,C11,C20,C22; ribo G21; rest 2'-OMe; 3' idT) [T59 vrt26] was run?
Answer: Its Kd is 18 nM.

Question: With ACGAACUGCCCUCAGCUACUUAUGUUGCUGACGCACAGACGU (ssRNA, 2'-F C and U; 2'-OH A and G; 3' idT) [T37] as the binder, how does the Kd [7] read?
Answer: The Kd was 10 nM.

B2: T94 vrt1 (ssRNA)
RNA: ACGAACUGCCCUCUUUUUUGACGCACAGACGU
modifications: 2'-F C2,U7,C9,C10,C11,U12,C22,C24,C30,U32; ribo A1,G3,G8,A21,G23,A25,G31; rest 2'-OMe; 3' idT
Question: For B2, which Kd [8] is on record?
Answer: Its Kd is 0.9 nM.

B3: T95 vrt1 (ssRNA)
RNA: ACGAACUGCCCUCUUUUUUUUGACGCACAGACGU
modifications: 2'-F C2,U7,C9,C10,C11,U12,C24,C26,C32,U34; ribo A1,G3,G8,A23,G25,A27,G33; rest 2'-OMe; 3' idT
Question: B3 was tested. Which Kd [8] did it give?
Answer: Its Kd is 0.9 nM.

Question: Which Kd [9] does the source give for ACGAACUGCCCUCGAUCGACGCACAGACGUACACA (ssRNA, 2'-F C and U; 2'-OH A and G; 3' idT) [T81] here?
Answer: Its Kd is 4.2 nM.

Question: Which Kd [10] does the source give for ACGAACUGCCCUCGAUCGACGCACAGACGUACACG (ssRNA, 2'-F C9,C10,C11,C20,G21,C22; rest 2'-OMe; 3' idT) [T84 vrt7] here?
Answer: Its Kd is 182 nM.

B4: T10 (ssRNA)
RNA: GGGAGGUGGACGAACUGCCCUCAGCUACUUUCAUGUUGCUGACGCACAGACGACUCGCUG
modifications: 2'-F C and U; 2'-OH A and G; 3' idT
Question: B4 was tested. Which Kd [11] did it give?
Answer: Its Kd is 18.4 nM.

Question: How did the Kd [12] turn out when CCGAACUGCCCUCAGCUAUUAUUAGCUGACGCACAGACGG (ssRNA, 2'-F C and U; 2'-OH A and G; 3' idT) [T30] was run?
Answer: Its Kd is 39.3 nM.
